B1: 5T4 9 mer peptide 8 (RLRLARLAL) (peptide)
peptide: RLRLARLAL
B2: 5T4 9 mer peptide 125 (LTYVSFRNL) (peptide)
peptide: LTYVSFRNL
B3: 5T4 9 mer peptide 65 (RLDEVRAGA) (peptide)
peptide: RLDEVRAGA
B4: 5T4 9 mer peptide 147 (NNPWVCDCH) (peptide)
peptide: NNPWVCDCH
B5: 5T4 9 mer peptide 109 (LASNHFLYL) (peptide)
peptide: LASNHFLYL
B6: 5T4 9 mer peptide 100 (VVAALLAGR) (peptide)
peptide: VVAALLAGR
B7: 5T4 9 mer peptide 161 (LTCAYPEKM) (peptide)
peptide: LTCAYPEKM
B8: 5T4 9 mer peptide 43 (VPTDLPAYV) (peptide)
peptide: VPTDLPAYV
B9: 5T4 9 mer peptide 198 (HMEGYHYRY) (peptide)
peptide: HMEGYHYRY
B10: 5T4 9-mer peptide 142 (peptide)
peptide: GLPHIRVFL
B11: 5T4 9-mer peptide 186 (peptide)
peptide: LLVLYLNRK
B12: 5T4 9-mer peptide 198 (peptide)
peptide: HMEGYHYRY
B13: 5T4 9-mer peptide 109 (peptide)
peptide: LASNHFLYL
B14: 5T4 9-mer peptide 100 (peptide)
peptide: VVAALLAGR
B15: 5T4 9-mer peptide 125 (peptide)
peptide: LTYVSFRNL
B16: 5T4 9-mer peptide 43 (peptide)
peptide: VPTDLPAYV
B17: 5T4 9-mer peptide 161 (peptide)
peptide: LTCAYPEKM
B18: 5T4 9-mer peptide 149 VCDCHMADM (peptide)
peptide: VCDCHMADM
notes: also called Peptide No 149
B19: 5T4 9-mer peptide 192 KWMHNIRDA (peptide)
peptide: KWMHNIRDA
notes: also called Peptide No 192
B20: 5T4 9-mer peptide 79 LSPFAFSGS (peptide)
peptide: LSPFAFSGS
notes: also called Peptide No 79
B21: 5T4 9-mer peptide 108 LELASNHFL (peptide)
peptide: LELASNHFL
B22: 5T4 9-mer peptide 81 AFSGSNASV (peptide)
peptide: AFSGSNASV
notes: also called Peptide No 81
B23: 5T4 9-mer peptide 116 AQLPSLRHL (peptide)
peptide: AQLPSLRHL

The binders below were run against T1, MHC class I molecule B*0702 (biotin (bound via biotin to streptavidin-coated plates)) (assay: iTopia affinity assay (ED50), peptide titration on plate-bound MHC).
T1 construct: Methods name B*0702 as the allele used; also called B7; HLA-B7
Description: (§1) The 9 mers were tested for Peptide Binding, Off Rate and Affinity using iTopia Epitope Discovery System in accordance with the manufacturer's instructions. Briefly, 96 well microtitre plates coated with MHC molecules representing different MHC alleles are used to identify candidate peptides. […] Determinations are performed in duplicate using an ELISA plate reader and included allele specific positive controls.
(§2) Dose-response curves of peptide binding to MHC were prepared by peptide titration to determine the ED50 measurement for each peptide. Values for the concentrations tested (in duplicate) were obtained as a percentage of the highest (9000×) concentration of the positive control peptide. A dose-response curve was generated using GraphPad Prism® curve fitting software, which automatically calculated the ED50 (in Molarity) for each peptide.

Going from B1 to B2, the EC50 rises from 20 nM to 3000 nM (150-fold).

With B3 the EC50 was 20000 nM.

Each binder was assayed against T2, MHC class I molecule A*0301 (biotin (bound via biotin to streptavidin-coated plates)) in the same assay as above.
T2 construct: also called A3; HLA-A3
Description: as §1, §2

First: B1
Second: B4
The EC50 of the first is 7.5-fold lower: 0.4 µM for the first, 3 µM for the second. The first is the more potent here.

Compared with B2, B5 is 10-fold higher in EC50: 3 µM for the first, 30 µM for the second. The first is the more potent here.

First: B6
Second: B3
The EC50 of the first is 4-fold lower: 10 µM for the first, 40 µM for the second. The first is the more potent here.

What follows are binders tested against T3, MHC class I molecule A*0201 (biotin (bound via biotin to streptavidin-coated plates)) in the same assay as above.
T3 construct: also called A2; HLA-A2
Description: as §1, §2

Going from B1 to B7, the EC50 rises from 0.06 µM to 10 µM (170-fold). The first is the more potent here.

B2 and B5 are within 1.5-fold of each other in EC50: 0.4 µM for the first, 0.6 µM for the second.

B8 and B3 are the same in EC50: 20 µM for the first, 20 µM for the second.

The binders below were run against T4, MHC class I molecule A*0101 (biotin (bound via biotin to streptavidin-coated plates)) in the same assay as above.
T4 construct: also called A1; HLA-A1
Description: as §1, §2

Compared with B7, B2 is 6.7-fold lower in EC50: 20 µM for the first, 3 µM for the second. The second is the more potent here.

B5 and B8 are the same in EC50: 20 µM for the first, 20 µM for the second.

For B9, the EC50 was 3 µM.

The binders below were run against T5, MHC class I allele A*0301 monomer (human, biotinylated, bound to streptavidin-coated plate) (assay: iTopia, multiparametric iScore).
T5 construct: also called A3; HLA-A3
Description: as §1
(§3) Finally, multiparametric analysis is performed on the results from these assays and an iScore is generated. The iScore represents a measure of the overall quality of peptide-MHC binding, enabling candidate peptides to be ranked in order of binding quality and allowing rational prioritisation of peptides for functional cellular follow-up studies.

Going from B10 to B11, the iScore rises from 0.319 to 0.375.

Going from B12 to B13, the iScore rises from 0.189 to 0.224.

Compared with B14, B15 is higher in iScore: 0.125 for the first, 0.157 for the second.

These binders were tested against T6, MHC class I allele B*0702 monomer (human, biotinylated, bound to streptavidin-coated plate) (assay: iTopia, multiparametric iScore).
T6 construct: also called B7; HLA-B7
Description: as §1, §3

For B15, the iScore was 0.574.

Each binder was assayed against T7, MHC class I allele A*0201 monomer (human, biotinylated, bound to streptavidin-coated plate) (assay: iTopia, multiparametric iScore).
T7 construct: also called A2; HLA-A2
Description: as §1, §3

Going from B10 to B11, the iScore falls from 1.39 to 0.386.

First: B13
Second: B15
The iScore of the first is lower: 0.337 for the first, 1.11 for the second.

These binders were tested against T8, MHC class I allele A*0101 monomer (human, biotinylated, bound to streptavidin-coated plate) (assay: iTopia, multiparametric iScore).
T8 construct: placeholder peptide and b2M removed, then reconstituted with test peptide and fresh b2M; also called A1; HLA-A1
Description: as §1, §3

Compared with B16, B17 is higher in iScore: 0.098 for the first, 0.139 for the second.

Compared with B12, B13 is lower in iScore: 0.357 for the first, 0.12 for the second.

With B15 the iScore was 0.522.

Target: T5, MHC class I allele A*0301 monomer
Assay: iTopia, multiparametric iScore
Remark: another data set of the same source
Outline: (§4)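 The iScore combines the binding, off-rate and affinity results into one overall binding-quality value for each 9-mer. These measurements were made by ELISA in duplicate on MHC-coated plates, with allele-specific positive controls.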

Compared with B10, B11 is higher in iScore: 0.319 for the first, 0.372 for the second.

Going from B17 to B12, the iScore rises from 0 to 0.189.

B15 gave an iScore of 0.157.

Target: T6, MHC class I allele B*0702 monomer
Assay: iTopia, multiparametric iScore
Remark: another data set of the same source
Outline: as §4

Compared with B10, B17 is lower in iScore: 0.075 for the first, 0 for the second.

Going from B12 to B15, the iScore rises from 0 to 0.574.

Target: T7, MHC class I allele A*0201 monomer
Assay: iTopia, multiparametric iScore
Remark: another data set of the same source
Outline: as §4

Compared with B10, B11 is lower in iScore: 1.89 for the first, 0.386 for the second.

First: B17
Second: B12
The iScore of the first is lower: 0.158 for the first, 0.24 for the second.

B15 gave an iScore of 1.11.

Target: T8, MHC class I allele A*0101 monomer
Assay: iTopia, multiparametric iScore
Remark: another data set of the same source
Outline: as §4

B10 and B11 are the same in iScore: 0 for the first, 0 for the second.

First: B17
Second: B12
The iScore of the first is lower: 0.139 for the first, 0.357 for the second.

With B15 the iScore was 0.522.

Each binder was assayed against T9, MHC class I molecule HLA-A*0201 (iTopia plate-bound monomer) (biotin (bound to streptavidin-coated plate)) (assay: iTopia off-rate assay, 37 C; fit R^2 0.85).
T9 construct: also called A2
Description: as §1
(§5) A one-phase exponential decay curve, with a plateau given equal to 0, was generated using GraphPad Prism® software, which calculated the t1/2 and goodness-of-fit, as measured by r², for each peptide.

B18 and B19 are the same in t½ half life: 1.4 h for the first, 1.4 h for the second.

In the case of B20, the t½ half life is reported as 0.4 h.

Each binder was assayed against T9, MHC class I molecule HLA-A*0201 (iTopia …) (assay: iTopia off-rate assay, 37 C; fit R^2 0.95).
Description: as §1, §5

Going from B21 to B22, the t½ half life falls from 84 min to 42 min (2-fold).

In the case of B23, the t½ half life is reported as 42 min.

Reference: patent US20090280138A1 (OXFORD BIOMEDICA UK, published 2009)
